The target of experiment [1] is human OX40 receptor (CD134), full length, on the cell surface (human) (UniProt P43489). In words: cell-based or functional assay.
For experiment [2], the target named is T1, human OX40 (form used in the assay not stated) (human, UniProt P43489 29-214, limits assumed).
T1 sequence (looked up): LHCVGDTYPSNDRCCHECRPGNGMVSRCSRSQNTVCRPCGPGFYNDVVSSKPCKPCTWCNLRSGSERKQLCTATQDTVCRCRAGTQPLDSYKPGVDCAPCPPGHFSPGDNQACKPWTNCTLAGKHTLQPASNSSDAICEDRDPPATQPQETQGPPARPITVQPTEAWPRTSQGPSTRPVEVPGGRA
In words: OX40 binding titration with OD readout (assay format and form of OX40 not described); x axis 'Log concentration, µg/ml Fab'.

For experiment [3], the target named is T2, murine OX40 (form not stated) (mouse, UniProt P47741 20-211, limits assumed).
T2 sequence (looked up): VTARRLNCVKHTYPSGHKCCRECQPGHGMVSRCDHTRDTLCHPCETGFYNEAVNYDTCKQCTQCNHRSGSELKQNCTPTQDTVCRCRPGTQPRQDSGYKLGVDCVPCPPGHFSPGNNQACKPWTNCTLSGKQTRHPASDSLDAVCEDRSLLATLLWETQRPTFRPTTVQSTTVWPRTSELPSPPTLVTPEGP
The experiment can be described thus: not described (observation cited in Example 8).

Experiment [4] has as its target T1, human OX40 (form used in the assay not …). In words: Biacore, format not described. A general note: Surface plasmon resonance follows binding to a sensor surface in real time, without labels.

With “OX40 ligand (OX40L) on transfected mouse L fibroblasts”, in experiment [1], the CMP Mean (n: 3), proliferation, Th17 cells + OX40L L-cells turned out to be 66000 CPM; the IFN-γ Conc (pg/ml), Th1 cells + OX40L L-cells is 33000 pg/mL; the IL2 (pg/ml), OX40-Hut-78 + OX40L-L-cells, no antibody was determined as 138 pg/mL; the IL13 (pg/ml), OX40-Hut-78 + OX40L-L-cells, no antibody is 620 pg/mL. Further, in experiment [1], the IL-17 Conc (pg/ml), TH-17, CD4+ cells/OX40L L-cells was 2260 pg/mL; the Survivin expression (%), Th17 cells + OX40L L-cells was 49%; the TH17 Survival (%), Th17 + OX40L-L-cells is 39.2%; the Th1 Survival (%), naïve CD4+ T-cells + OX40L L-cells came out at 65.9%. In experiment [1], the Th17 proliferation, fold against culture without OX40L costimulation was determined as 4 fold and the Th-17 Survival (%), Th17 cells + OX40L L-cells is 84.3%.

B1: humanized anti-OX40 antibody A10(TH)hu336F (antibody, V domains shown)
VH: QVQLVQSGAEVKKPGASVKVSCKASGYTFTSYWMHWVRQAPGQGLEWMGEIHPKSGNSNYNEKFKGRVTMTRDTSTSTVYMELSSLRSEDTAVYYCARGPEYSNFWFAYWGQGTLVTVSS
VL: DIVLTQSPTSLAVSLGQRATISCKASQTVDYDGDSYMHWYQQKPGQPPKLLIYAASNLESGVPDRFSGSGSGTDFTLTISSLQAEDVAVYYCHQSNEDPWTFGQGTKVEIK
notes: also called humanized clone A10(TH)hu336F; 'humanized' A10 molecule
In the case of B1, the half-maximal effective concentration (EC50 (read off the curve)) in experiment [2] is ~9 ng/mL. Besides, the binding result in experiment [3] is listed as “no binding”.

B2: humanized A10 whole antibody F (A10 LC (TH) hu 336 / A10 humanized) (antibody, V domains shown)
VH: QVQLVQSGAEVKKPGASVKVSCKASGYTFTSYWMHWVRQAPGQGLEWMGEIHPKSGNSNYNEKFKGRVTMTRDTSTSTVYMELSSLRSEDTAVYYCARGPEYSNFWFAYWGQGTLVTVSS
VL: DIVLTQSPTSLAVSLGQRATISCKASQTVDYDGDSYMHWYQQKPGQPPKLLIYAASNLESGVPDRFSGSGSGTDFTLTISSLQAEDVAVYYCHQSNEDPWTFGQGTKVEIK
notes: also called A10-F; humanized variant A10-F
In experiment [4], B2 registered a Kd of 1.12 nM, a koff of 0.000158 s⁻¹ and a kon of 141000 M⁻¹ s⁻¹.

B3: humanized A10 whole antibody D (A10 LC (SH) / A10 humanized) (antibody, V domains shown)
VH: QVQLVQSGAEVKKPGASVKVSCKASGYTFTSYWMHWVRQAPGQGLEWMGEIHPKSGNSNYNEKFKGRVTMTRDTSTSTVYMELSSLRSEDTAVYYCARGPEYSNFWFAYWGQGTLVTVSS
VL: DIVMTQSPDSLAVSLGERATINCKASQSVDYDGDSYMHWYQQKPGQPPKLLIYAASNLESGVPDRFSGSGSGTDFTLTISSLQAEDVAVYYCHQSNEDPWTFGQGTKVEIK
notes: also called A10-D; A10 D
On to B3, for which, in experiment [4], the Kd was 1.21 nM, the dissociation rate constant (koff) stood at 0.00017 s⁻¹ and the kon came to 140000 M⁻¹ s⁻¹.

B4: humanized A10 whole antibody E (A10 LC (SN) / A10 humanized) (antibody, V domains shown)
VH: QVQLVQSGAEVKKPGASVKVSCKASGYTFTSYWMHWVRQAPGQGLEWMGEIHPKSGNSNYNEKFKGRVTMTRDTSTSTVYMELSSLRSEDTAVYYCARGPEYSNFWFAYWGQGTLVTVSS
VL: DIVMTQSPDSLAVSLGERATINCKASQSVDYDGDSYMNWYQQKPGQPPKLLIYAASNLESGVPDRFSGSGSGTDFTLTISSLQAEDVAVYYCHQSNEDPWTFGQGTKVEIK
For B4, in experiment [4], the affinity, expressed as Kd, was 1.25 nM; the dissociation rate constant (koff) stood at 0.000191 s⁻¹; the kon stood at 151000 M⁻¹ s⁻¹.

B5: humanized A10 whole antibody C (A10 LC (TH) hu 336 / A10 L70) (antibody, V domains shown)
VH: QVQLVQSGAEVKKPGASVKVSCKASGYTFTSYWMHWVRQAPGQGLEWMGEIHPKSGNSNYNEKFKGRVTLTRDTSTSTVYMELSSLRSEDTAVYYCARGPEYSNFWFAYWGQGTLVTVSS
VL: DIVMTQSPDSLAVSLGERATINCKASQTVDYDGDSYMHWYQQKPGQPPKLLIYAASNLESGVPDRFSGSGSGTDFTLTISSLQAEDVAVYYCHQSNEDPWTFGQGTKVEIK
In experiment [4], B5 yielded a Kd of 1.44 nM, a koff of 0.000151 s⁻¹ and a kon of 116000 M⁻¹ s⁻¹.

B6: humanized A10 whole antibody B (A10 LC (SN) / A10 L70) (antibody, V domains shown)
VH: QVQLVQSGAEVKKPGASVKVSCKASGYTFTSYWMHWVRQAPGQGLEWMGEIHPKSGNSNYNEKFKGRVTLTRDTSTSTVYMELSSLRSEDTAVYYCARGPEYSNFWFAYWGQGTLVTVSS
VL: DIVMTQSPDSLAVSLGERATINCKASQSVDYDGDSYMNWYQQKPGQPPKLLIYAASNLESGVPDRFSGSGSGTDFTLTISSLQAEDVAVYYCHQSNEDPWTFGQGTKVEIK
In experiment [4], B6 showed a Kd of 0.94 nM, a koff of 0.000156 s⁻¹ and a kon of 170000 M⁻¹ s⁻¹.

B7: humanized A10 whole antibody A (A10 LC (SH) / A10 L70) (antibody, V domains shown)
VH: QVQLVQSGAEVKKPGASVKVSCKASGYTFTSYWMHWVRQAPGQGLEWMGEIHPKSGNSNYNEKFKGRVTLTRDTSTSTVYMELSSLRSEDTAVYYCARGPEYSNFWFAYWGQGTLVTVSS
VL: DIVMTQSPDSLAVSLGERATINCKASQSVDYDGDSYMHWYQQKPGQPPKLLIYAASNLESGVPDRFSGSGSGTDFTLTISSLQAEDVAVYYCHQSNEDPWTFGQGTKVEIK
In experiment [4], B7 yielded a Kd of 1.38 nM, a koff of 0.000179 s⁻¹ and a kon of 131000 M⁻¹ s⁻¹.

The term EC50 (read off the curve) denotes the concentration at which the effect is half-maximal. Read a low EC50 (read off the curve) as a more potent agent. The Kd is a measure of binding affinity in units of concentration. A higher Kd goes with a looser complex. Broadly, the koff is the first-order rate constant of dissociation. High values mean fast dissociation, low ones slow dissociation. In general, kon refers to a measure of how fast the partners come together. A higher kon goes with fast association.

The values above are taken from patent US20100136030A1 (published 2010).
